Measurements taken from article PMC5758567 (2018).

How the values were obtained:
[1] = molecular target: T1, PDE6 (lower-affinity site) (Bos taurus, UniProt P11541); assay: activity titration
T1 chain 1: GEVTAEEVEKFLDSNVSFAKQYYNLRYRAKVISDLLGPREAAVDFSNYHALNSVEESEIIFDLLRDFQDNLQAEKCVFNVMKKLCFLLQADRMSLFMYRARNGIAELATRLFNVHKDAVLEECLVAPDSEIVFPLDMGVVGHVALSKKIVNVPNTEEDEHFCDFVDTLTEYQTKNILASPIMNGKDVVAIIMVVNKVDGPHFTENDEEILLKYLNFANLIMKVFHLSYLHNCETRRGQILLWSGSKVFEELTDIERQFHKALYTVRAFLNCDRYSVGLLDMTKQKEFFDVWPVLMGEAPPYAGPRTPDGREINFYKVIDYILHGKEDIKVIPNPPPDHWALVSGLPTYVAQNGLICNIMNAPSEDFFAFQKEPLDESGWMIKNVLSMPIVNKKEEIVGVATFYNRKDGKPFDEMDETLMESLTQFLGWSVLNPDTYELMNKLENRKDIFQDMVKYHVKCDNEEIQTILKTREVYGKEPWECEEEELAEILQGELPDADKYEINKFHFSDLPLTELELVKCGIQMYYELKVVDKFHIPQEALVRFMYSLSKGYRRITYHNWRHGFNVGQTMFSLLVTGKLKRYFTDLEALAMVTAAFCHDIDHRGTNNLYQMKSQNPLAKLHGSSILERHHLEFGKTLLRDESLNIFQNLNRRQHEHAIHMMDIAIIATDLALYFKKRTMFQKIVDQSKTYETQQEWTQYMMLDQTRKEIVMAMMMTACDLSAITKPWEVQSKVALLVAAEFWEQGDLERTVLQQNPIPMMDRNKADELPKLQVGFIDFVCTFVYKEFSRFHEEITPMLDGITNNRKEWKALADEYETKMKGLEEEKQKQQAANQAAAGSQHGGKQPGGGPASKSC
T1 chain 2: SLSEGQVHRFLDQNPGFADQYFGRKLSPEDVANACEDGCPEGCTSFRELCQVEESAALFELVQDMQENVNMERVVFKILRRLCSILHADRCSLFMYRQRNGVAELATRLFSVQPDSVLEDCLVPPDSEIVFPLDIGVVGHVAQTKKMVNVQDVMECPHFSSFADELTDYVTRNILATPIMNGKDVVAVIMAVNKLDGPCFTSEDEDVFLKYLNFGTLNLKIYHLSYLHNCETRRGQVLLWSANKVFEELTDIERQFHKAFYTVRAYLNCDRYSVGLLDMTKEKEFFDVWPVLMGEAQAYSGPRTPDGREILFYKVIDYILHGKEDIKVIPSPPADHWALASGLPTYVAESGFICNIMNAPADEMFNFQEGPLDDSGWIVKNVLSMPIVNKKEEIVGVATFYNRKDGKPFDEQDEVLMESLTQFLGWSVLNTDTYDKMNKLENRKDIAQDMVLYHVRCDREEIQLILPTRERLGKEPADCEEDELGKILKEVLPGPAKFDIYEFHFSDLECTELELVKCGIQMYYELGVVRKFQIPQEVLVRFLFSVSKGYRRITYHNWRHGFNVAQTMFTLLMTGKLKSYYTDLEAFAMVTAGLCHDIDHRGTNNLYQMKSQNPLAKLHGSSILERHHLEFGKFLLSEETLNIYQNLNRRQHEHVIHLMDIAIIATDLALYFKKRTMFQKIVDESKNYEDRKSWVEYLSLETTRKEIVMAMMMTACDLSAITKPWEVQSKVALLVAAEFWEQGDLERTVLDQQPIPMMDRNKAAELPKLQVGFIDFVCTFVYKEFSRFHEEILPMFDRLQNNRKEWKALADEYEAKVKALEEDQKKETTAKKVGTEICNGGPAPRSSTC

[2] = molecular target: T2, PDE6 (higher-affinity site) (Bos taurus, UniProt P11541); assay: activity titration
T2 chain 1: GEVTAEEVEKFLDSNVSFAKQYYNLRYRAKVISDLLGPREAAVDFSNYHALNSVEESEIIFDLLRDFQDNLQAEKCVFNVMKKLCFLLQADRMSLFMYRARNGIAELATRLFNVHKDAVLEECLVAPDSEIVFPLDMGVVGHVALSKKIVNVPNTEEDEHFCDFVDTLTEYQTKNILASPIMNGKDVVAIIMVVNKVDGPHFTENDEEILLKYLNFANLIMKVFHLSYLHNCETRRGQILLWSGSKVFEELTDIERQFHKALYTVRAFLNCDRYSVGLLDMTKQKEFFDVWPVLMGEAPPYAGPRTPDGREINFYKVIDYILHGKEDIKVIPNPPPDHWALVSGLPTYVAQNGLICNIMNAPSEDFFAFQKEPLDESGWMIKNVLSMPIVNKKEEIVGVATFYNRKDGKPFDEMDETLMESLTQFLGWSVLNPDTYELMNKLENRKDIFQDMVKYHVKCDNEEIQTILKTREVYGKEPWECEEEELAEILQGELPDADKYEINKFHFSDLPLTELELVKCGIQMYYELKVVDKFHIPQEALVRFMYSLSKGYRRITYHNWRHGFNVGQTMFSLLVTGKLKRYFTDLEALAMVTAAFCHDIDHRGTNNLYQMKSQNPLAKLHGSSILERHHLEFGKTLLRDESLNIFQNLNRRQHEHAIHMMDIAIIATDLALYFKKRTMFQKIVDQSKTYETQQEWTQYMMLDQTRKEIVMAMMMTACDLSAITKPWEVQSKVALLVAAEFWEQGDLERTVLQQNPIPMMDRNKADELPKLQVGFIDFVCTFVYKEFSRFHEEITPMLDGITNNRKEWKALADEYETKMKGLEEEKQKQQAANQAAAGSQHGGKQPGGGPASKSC
T2 chain 2: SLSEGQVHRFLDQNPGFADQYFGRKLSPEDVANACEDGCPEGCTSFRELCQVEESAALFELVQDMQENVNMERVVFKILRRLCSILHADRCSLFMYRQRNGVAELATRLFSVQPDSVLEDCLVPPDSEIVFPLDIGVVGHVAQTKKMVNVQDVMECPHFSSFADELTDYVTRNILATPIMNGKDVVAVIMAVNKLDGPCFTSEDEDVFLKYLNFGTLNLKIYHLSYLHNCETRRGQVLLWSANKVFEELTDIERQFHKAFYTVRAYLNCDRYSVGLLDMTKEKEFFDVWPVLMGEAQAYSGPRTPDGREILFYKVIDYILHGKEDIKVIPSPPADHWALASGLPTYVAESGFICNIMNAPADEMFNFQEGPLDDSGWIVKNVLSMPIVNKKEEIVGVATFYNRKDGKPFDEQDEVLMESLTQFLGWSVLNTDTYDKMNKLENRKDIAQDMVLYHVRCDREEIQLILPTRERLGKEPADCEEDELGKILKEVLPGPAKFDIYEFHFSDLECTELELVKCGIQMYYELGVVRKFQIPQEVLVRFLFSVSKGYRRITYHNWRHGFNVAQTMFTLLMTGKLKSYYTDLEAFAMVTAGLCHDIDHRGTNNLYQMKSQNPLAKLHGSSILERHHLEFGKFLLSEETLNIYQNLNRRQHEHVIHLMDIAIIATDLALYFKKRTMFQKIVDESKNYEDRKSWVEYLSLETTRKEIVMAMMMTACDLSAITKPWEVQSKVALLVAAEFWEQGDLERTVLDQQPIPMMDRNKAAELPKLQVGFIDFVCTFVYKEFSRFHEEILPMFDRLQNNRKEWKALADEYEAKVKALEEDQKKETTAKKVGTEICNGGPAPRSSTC

B1: PrBP/δ (protein)
chain: MSAKDERAREILRGFKLNWMNLRDAETGKILWQGTEDLSVPGVEHEARVPKKILKCKAVSRELNFSSTEQMEKFRLEQKVYFKGQCLEEWFFEFGFVIPNSTNTWQSLIEAAPESQMMPASVLTGNVIIETKFFDDDLLVSTSRVRLFYV
Kd [1]: 700 nM | Kd [2]: 40 nM
